# Source: the supplement of paper PMC12042874
# ± gives the uncertainty stated by the source.
# Assay: amyloid nucleation score (Sup35N fusion, yeast selection) (log enrichment); library NNK3; higher = more nucleation; inactive = no reads after selection
# Summary of the method: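 On medium lacking adenine and uracil, psi-negative yeast expressing peptides of 20 random codons fused to Sup35N were grown 7 days at 30°C after a 24-hour induction with 100 μM copper sulfate. Illumina sequencing of input and output plasmid inserts gave the reads, and sequences under 100 input reads were excluded. The nucleation score is the DiMSum log enrichment of output over input reads, centred on the mode score of non-aggregating sequences.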
row,Substance,amyloid nucleation score
1,WIRDFYEFAEWSSDTCGIRI,inactive
2,WISIVQW,inactive
3,WIVVDKSNQCGLGYVLWYNF,inactive
4,WIWSGMYSNWPNSAPVNIR,inactive
5,WKCVLMTSATHMPQYPHGCG,inactive
6,WKFAGHEALWFLKIIEMLR,inactive
7,WKGWSFNLLLRGILQAIIAS,inactive
8,WKPCS,inactive
9,WKPGRYSTKAPQLEVPERHV,inactive
10,WKRNI,0.172 ± 0.71
11,WKYGKLISPFVQDVVSLSIK,inactive
12,WLHFCHSAPSEYFVIMRMCK,inactive
13,WLNEM,inactive
14,WLSNREVFKMYIRLVQLAWL,inactive
15,WMCVLCCSVRNIGKTYKSCL,inactive
16,WMFSRL,inactive
17,WMMNIDYTNSW,inactive
18,WNFYGWRVLSHRRTGSVHRL,-0.847 ± 1.4
19,WNLSSFININPSYYSDTWHG,2.08 ± 0.071
20,WNLVPSHMFFV,inactive
21,WNYGTALMLRQIGSGFICIY,inactive
22,WPTFDCRRM,inactive
23,WQITTRTIDRPHYKHPGVPL,inactive
24,WQIWDRVQTRKFHGEFTYMR,inactive

row,Substance,amyloid nucleation score
1,WQPFD,inactive
2,WRAADDQTWGLVRCLSI,0.57 ± 0.17
3,WRCLYYMQAYSSN,inactive
4,WRFRIVR,inactive
5,WRFYGYI,inactive
6,WRSCSKDHLCFQSPVMPLSR,0.214 ± 0.42
7,WRYYRAYKVITHIKFLFFTE,inactive
8,WSAIVDSWCDSSRRVEIVVR,inactive
9,WSFNGSNECISRLDINLNVF,0.407 ± 0.15
10,WSFVPRGIVVSRRLSVYTRT,inactive
11,WSLSYHRKMIFGDTCVTYIG,inactive
12,WSMSDFAALIGWIDALGLEL,inactive
13,WSNNMWYVRYSDFCISCLLV,inactive
14,WSRSSADRVII,-0.471 ± 1.5
15,WSTESWTYPGIRMCFWGGEG,-0.755 ± 1.4
16,WTGMPRTGWDGPRYKALSRS,inactive
17,WTNSSQHLSESLWYVDYCQG,inactive
18,WTRHGSEFVCYNSGHLWVFD,0.164 ± 0.31
19,WTSQVMRMDKTQVTGRDRVA,inactive
20,WTSSVILRPSMCLLGWYMLV,inactive
21,WTTYLWVAGVLA,inactive
22,WTWGKAYDAMFLIVTFFCIF,inactive
23,WTYIWCAN,1.75 ± 0.11
24,WVFLNRAQQHSNVLPSQGLV,inactive

row,Substance,amyloid nucleation score
1,WVFSSNVRKYMRALRRRYSD,inactive
2,WVGNTVKHKLGLVGNCGSCA,-0.73 ± 1.9
3,WVIRELTWITWIVLADLS,inactive
4,WVPKFYRLGSDTWSSVSLDV,inactive
5,WVRAA,inactive
6,WVRCVRQGVYLRYVLLLCEI,inactive
7,WVWIVSMVRRGSEAFEALEM,inactive
8,WWCMNRCEDAASINGIVARK,inactive
9,WWFLGGRSRGDRGILMVDVA,0.214 ± 0.53
10,WWGNRAVVYIILLHEPGAWR,inactive
11,WWTNLATPAKNQS,inactive
12,WYKNYASTRIPMIEWKRILT,inactive
13,WYLMCWCCLKVPVAQLM,0.671 ± 0.19
14,WYMCLGSLMSIVF,inactive
15,WYMECTVACSSIICSWKWGL,inactive
16,WYMHTTLD,inactive
17,WYVCRSGVCGHALIALATRR,-0.483 ± 0.61
18,WYVYKFCEPVGDRGRFVWCL,-0.212 ± 0.84
19,YAFGGQLFAFVLRNENIFSG,1.37 ± 0.085
20,YAFLLYY,inactive
21,YAFVCSDV,inactive
22,YAHLWKNSEAGWSGKYSILW,inactive
23,YALLKHSTWYRVGQF,inactive
24,YANWLVLILYG,1.32 ± 0.11

row,Substance,amyloid nucleation score
1,YARYNTLVLSAKPPLLYDSW,inactive
2,YASDWVRRPGRN,inactive
3,YAVCSSLKYLIVESSKLTSV,0.038 ± 0.36
4,YCAFLTNPHVLDFSMNCCKL,2.29 ± 0.059
5,YCSLLSDERGSSVTGILAVF,inactive
6,YCYFFLGLCTYKSQYNGLRL,inactive
7,YDLGVAVLNRNSKRSC,inactive
8,YDRGLISWTCVRVSS,inactive
9,YDTLDTKCAVADKEIFCRIP,inactive
10,YEAYV,inactive
11,YELFS,0.922 ± 0.11
12,YENCSMYYSTTGIPAMCEIT,inactive
13,YEPTSAK,inactive
14,YESRGEGVMPSTQLWMSRLG,inactive
15,YFCSFREVRSHGQTLR,inactive
16,YFEYRPKMHHYSLCYMGEFS,inactive
17,YFGGRM,inactive
18,YFMIDRPALRLVDKKCGSRS,inactive
19,YFPSSCCNDFVFSSLEFQSM,2.12 ± 0.055
20,YFRFRSFLVLSDM,inactive
21,YFRYRSDVIAYISVIIGNLV,inactive
22,YFTSEPLSAPSQWGRVKGSA,inactive
23,YFTYGRQCMVVLDCLVDRRG,inactive
24,YFVFKALRSIPNGLMLSLRG,inactive

row,Substance,amyloid nucleation score
1,YFVLFVRQCVKLVMRFGSED,inactive
2,YFYWTCSDKRVTIEDVVPLH,inactive
3,YGFRRTACMCL,inactive
4,YGLVLGFRRTGYTCDDSLNW,inactive
5,YGVYISIFILCWNGGNNDDC,inactive
6,YHEGLYCGWSYNNCYLTFIG,0.821 ± 0.25
7,YHLFLDVVFFHSTKDESRKN,0.187 ± 0.6
8,YHVMV,inactive
9,YHYLSNVGMRWGDFTYSWFM,inactive
10,YIEAMNAGLPGEPARYFVVS,inactive
11,YIFEPV,0.318 ± 0.77
12,YIFVMLEHVG,inactive
13,YIGVRGFLLYPFNRVFEVMM,inactive
14,YIIRENLW,inactive
15,YIISRFYMAVWGDKPLYTGL,inactive
16,YIMCCGV,1.61 ± 0.073
17,YINLFLLSGSFVFRVDHHFI,2.47 ± 0.088
18,YISCMCANIRNIFVISIH,1.81 ± 0.08
19,YISSFKFRLSCLRYQIVNSV,inactive
20,YITLRGLWRYCQVMLVYVWK,inactive
21,YIVRDNEAYRKYGSANESGC,inactive
22,YIVSSSD,inactive
